# Literature values in paper PMC5830169.
# Biological target: rhodopsin (UniProt P02699)
# Chain of UniProt P02699 (P02699 whole entry): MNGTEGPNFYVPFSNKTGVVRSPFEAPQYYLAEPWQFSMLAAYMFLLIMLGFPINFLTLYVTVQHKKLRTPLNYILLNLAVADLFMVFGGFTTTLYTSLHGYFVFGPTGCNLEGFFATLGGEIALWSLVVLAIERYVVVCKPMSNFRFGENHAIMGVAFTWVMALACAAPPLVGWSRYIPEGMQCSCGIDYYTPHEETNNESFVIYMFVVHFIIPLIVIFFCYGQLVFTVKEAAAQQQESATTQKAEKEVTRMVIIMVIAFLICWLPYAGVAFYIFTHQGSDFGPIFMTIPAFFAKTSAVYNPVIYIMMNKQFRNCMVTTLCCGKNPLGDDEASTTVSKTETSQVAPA
substance,measurement,value
visual arrestin (from UniProt P10523),Kd,50 nM
